Measured values from patent publication US20060121056A1.

Molecular target: SNAP-25 (rat) (UniProt P60881)

Work on WGA-LHN/A conjugate (enzyme) yielded an IC50, inhibition of glycine release from eSC neurons (3 days) (microgrammes/ml) of 0.06 and an IC50, inhibition of substance P release from eDRG neurons (3 days) (microgrammes/ml) of 0.34.
